According to publication PMC8100066, “PIM-induced phosphorylation of Notch3 promotes breast cancer tumorigenicity in a CSL-independent fashion” (The Journal of Biological Chemistry, 2021):

Target: T1, mouse CSL (amino acid residues 53-474), conserved and structurally ordered core domain (mouse, UniProt P31266 53-474)
T1 construct: The SMT3 tag was cut off with ubiquitin-like protease and separated by ion exchange; also called RBPJ; mCSL
Experiment: ITC; CSL in the cell at 10 μM, RAM peptides in the syringe at 100 μM; 20 °C; 50 mM sodium phosphate, 150 mM sodium chloride; triplicate, 20 injections of 14 μl
Settings: both partners purified

T1 sequence (P31266 53-474): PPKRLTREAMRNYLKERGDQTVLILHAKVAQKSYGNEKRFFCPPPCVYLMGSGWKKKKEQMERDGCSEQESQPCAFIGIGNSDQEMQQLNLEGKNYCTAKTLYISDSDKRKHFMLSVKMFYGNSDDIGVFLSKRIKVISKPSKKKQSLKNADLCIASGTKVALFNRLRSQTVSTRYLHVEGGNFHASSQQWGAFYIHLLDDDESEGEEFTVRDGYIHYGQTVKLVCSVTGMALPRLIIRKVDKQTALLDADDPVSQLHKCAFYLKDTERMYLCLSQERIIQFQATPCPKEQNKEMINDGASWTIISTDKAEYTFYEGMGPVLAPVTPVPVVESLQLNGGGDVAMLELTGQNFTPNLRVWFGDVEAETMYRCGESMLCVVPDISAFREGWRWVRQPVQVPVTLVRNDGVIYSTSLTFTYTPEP

B1: human NOTCH1 RAM peptide (residues 1754-1781) (peptide)
peptide: VLLSRKRRRQHGQLWFPEGFKVSEASKK
notes: NOTCH1, human, RAM domain, residues 1754-1781; also called N1RAM; source: synthetic peptide (Peptide2.0, 95% purity)
How did the Kd turn out when B1 was run?
Its Kd is 22 nM.
